For orientation: stoichiometry N means the number of molecules, sites or subunits per partner or assembly.

This data set concerns the molecule itself. Briefly: cross-linking.

B1: P2X4-GFP (receptor, UniProt P51577 1-388, looked up)
chain: MAGCCSVLGSFLFEYDTPRIVLIRSRKVGLMNRAVQLLILAYVIGWVFVWEKGYQETDSVVSSVTTKAKGVAVTNTSQLGFRIWDVADYVIPAQEENSLFIMTNMIVTVNQTQSTCPEIPDKTSICNSDADCTPGSVDTHSSGVATGRCVPFNESVKTCEVAAWCPVENDVGVPTPAFLKAAENFTLLVKNNIWYPKFNFSKRNILPNITTSYLKSCIYNAQTDPFCPIFRLGTIVEDAGHSFQEMAVEGGIMGIQIKWDCNLDRAASLCLPRYSFRRLDTRDLEHNVSPGYNFRFAKYYRDLAGKEQRTLTKAYGIRFDIIVFGKAGKFDIIPTMINVGSGLALLGVATVLCDVIVLYCMKKKYYYRDKKYKYVEDYEQGLSGEMNQ
Take B1: the “stoichiometry N” value came out at 3.

B2: CHC-TFE3 fusion protein, Flag- or Myc-tagged (other, human, UniProt Q00610 1-932, looked up)
chain: MAQILPIRFQEHLQLQNLGINPANIGFSTLTMESDKFICIREKVGEQAQVVIIDMNDPSNPIRRPISADSAIMNPASKVIALKAGKTLQIFNIEMKSKMKAHTMTDDVTFWKWISLNTVALVTDNAVYHWSMEGESQPVKMFDRHSSLAGCQIINYRTDAKQKWLLLTGISAQQNRVVGAMQLYSVDRKVSQPIEGHAASFAQFKMEGNAEESTLFCFAVRGQAGGKLHIIEVGTPPTGNQPFPKKAVDVFFPPEAQNDFPVAMQISEKHDVVFLITKYGYIHLYDLETGTCIYMNRISGETIFVTAPHEATAGIIGVNRKGQVLSVCVEEENIIPYITNVLQNPDLALRMAVRNNLAGAEELFARKFNALFAQGNYSEAAKVAANAPKGILRTPDTIRRFQSVPAQPGQTSPLLQYFGILLDQGQLNKYESLELCRPVLQQGRKQLLEKWLKEDKLECSEELGDLVKSVDPTLALSVYLRANVPNKVIQCFAETGQVQKIVLYAKKVGYTPDWIFLLRNVMRISPDQGQQFAQMLVQDEEPLADITQIVDVFMEYNLIQQCTAFLLDALKNNRPSEGPLQTRLLEMNLMHAPQVADAILGNQMFTHYDRAHIAQLCEKAGLLQRALEHFTDLYDIKRAVVHTHLLNPEWLVNYFGSLSVEDSLECLRAMLSANIRQNLQICVQVASKYHEQLSTQSLIELFESFKSFEGLFYFLGSIVNFSQDPDVHFKYIQAACKTGQIKEVERICRESNCYDPERVKNFLKEAKLTDQLPLIIVCDRFDFVHDLVLYLYRNNLQKYIEIYVQKVNPSRLPVVIGGLLDVDCSEDVIKNLILVVRGQFSTDELVAEVEKRNRLKLLLPWLEARIHEGCEEPATHNALAKIYIDSNNNPERFLRENPYYDSRVVGKYCEKRDPHLACVAYERGQCDLELINLPVSGNLLDVYSSQGVATPAITVSNSCPAELPNIKREISETEAKALLKERQKKDNHNLIERRRRFNINDRIKELGTLIPKSSDPEMRWNKGTILKASVDYIRKLQKEQQRSKDLESRQRSLEQANRSLQLRIQELELQAQIHGLPVPPTPGLLSLATTSASDSLKPEQLDIEEEGRPGAATFHVGGGPAQNAPHQQPPAPPSDALLDLHFPSDHLGDLGDPFHLGLEDILMEEEEGVVGGLSGGALSPLRAASDPLLSSVSPAVSKASSRRSSFSMEEES
As to B2, the “stoichiometry N” value came out at 2.

These data come from PMC3362863 (Traffic (Copenhagen, Denmark), 2011).
